Publication PMC4848090, “Mechanistic insight into a peptide hormone signaling complex mediating floral organ abscission” (eLife, 2016)

Tests used:
HAESA - IDA = assay: Isothermal titration calorimetry of SERK1 titrated into HAESA in the presence of IDA; assay type: binding, Arabidopsis thaliana; conditions: ITC, 25°C, pH 5.0; SERK1 (100 μM) titrated into HAESA (10 μM) in the presence of 150 μM wild-type IDA peptide
Excerpt: (§1) Synthetic genes coding for the Arabidopsis thaliana HAESA (residues 20–620) and SERK1 ectodomains (residues 24–213, carrying Asn115→Asp and Asn163→Gln mutations), codon optimized for expression in Trichoplusia ni (Geneart, Germany), were cloned into a modified pBAC-6 transfer vector (Novagen, Billerica, MA), providing an azurocidin signal peptide and a C-terminal TEV (tobacco etch virus protease) cleavable Strep-9xHis tandem affinity tag. Recombinant baculoviruses were generated by co-transfecting transfer vectors with linearised baculovirus DNA (ProFold-ER1, AB vector, San Diego, CA) followed by viral amplification in Spodoptera frugiperda Sf9 cells. […] The purified HAESA ectodomain was incubated with a synthetic IDA peptide (YVPIPPSA-Hyp-SKRHN, the N-terminal Tyr residue was added to allow for peptide quantification by UV absorbance) and the SERK1 ectodomain in 1:1:1.5 molar ratio. […]
(§2) ITC experiments were performed using a Nano ITC (TA Instruments, New Castle, DE) with a 1.0 mL standard cell and a 250 μL titration syringe. […] Molar protein concentrations for SERK1 and HAESA were calculated using their molar extinction coefficient and a molecular weight of 27,551 and 74,896 Da, respectively (determined by MALDI-TOF mass spectrometry). […] Data were analyzed using the NanoAnalyze program (version 2.3.6) as provided by the manufacturer.

HAESA ectodomain = assay: Isothermal titration calorimetry of SERK1 titrated into HAESA ectodomain only; parameters: species or system Arabidopsis thaliana; conditions: ITC, 25°C, pH 5.0; SERK1 (100 μM) titrated into HAESA (10 μM) in the absence of IDA; n.d. no detectable binding
Excerpt: as §1, §2

B1: SERK1: LRR ectodomain of Arabidopsis SERK1 co-receptor (residues 24–213, Asn115→Asp, Asn163→Gln), expressed in insect cells (protein)
chain: ASANLEGDALHTLRVTLVDPNNVLQSWDPTLVNPCTWFHVTCNNENSVIRVDLGNAELSGHLVPELGVLKNLQYLELYSNNITGPIPSNLGDLTNLVSLDLYLNSFSGPIPESLGKLSKLRFLRLNNNSLTGSIPMSLTQITTLQVLDLSNNRLSGSVPDNGSFSLFTPISFANNLDLCGPVTSHPCPGS
modifications: left off: Strep, C-terminal, cleaved | 9xHis, C-terminal, cleaved
notes: LRR ectodomain of Arabidopsis SERK1 co-receptor (residues 24–213, Asn115→Asp, Asn163→Gln), expressed in insect cells
- Kd of SERK1, protein in cell: HAESA - IDA (HAESA - IDA): mid-nanomolar range
- Kd of SERK1, protein in cell: HAESA (HAESA ectodomain): no detectable interaction
